Data published in patent publication US20250313626A1 (HARBOUR BIOMED SHANGHAI, published 2025).
Read-outs that look alike come from different tables or passages of the source. Values belong to the binder of their own block, whether it stands above or below them.

What was measured:
[1] = target: T1, Cynomolgus macaques CD200R1 isoform a on CHOK1 cells (CHOK1/cynoCD200R1a) (Cynomolgus macaques); test: flow cytometry on CHOK1/cynoCD200R1a cells
T1 chain: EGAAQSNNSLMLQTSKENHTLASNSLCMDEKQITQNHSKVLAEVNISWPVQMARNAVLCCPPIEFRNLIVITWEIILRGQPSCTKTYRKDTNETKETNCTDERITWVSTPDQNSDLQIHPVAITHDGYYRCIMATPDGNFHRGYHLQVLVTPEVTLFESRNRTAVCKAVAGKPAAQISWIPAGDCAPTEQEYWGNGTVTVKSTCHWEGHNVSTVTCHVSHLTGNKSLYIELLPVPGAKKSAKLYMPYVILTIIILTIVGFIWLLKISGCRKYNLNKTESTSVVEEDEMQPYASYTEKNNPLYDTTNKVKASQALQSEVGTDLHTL
Experimental: (§1) This example is intended to investigate the in vitro binding activity of human anti-CD200R1 monoclonal antibodies to human/Cynomolgus macaques CD200R1a expressed on the surface of cells. The anti-CD200R1 antibodies were produced as described in Example 3.4 and the binding experiments at the cell level were performed using CHOK1/hCD200R1a and CHOK1-cynoCD200R1a.
(§2) Briefly, CHOK1/hCD200R1a cells and CHOK1-cynoCD200R1a cells were digested, and collected, and then were resuspended in PBS containing 2% BSA, respectively. The cell density was adjusted to 1×10⁶ cells/mL. The cells were seeded in a 96-well V-bottom plate (Corning, #3894) at 100 μL/well, followed by the addition of test antibodies and reference antibodies in a series diluted concentration, each at 100 μL/well. The cells were incubated away from light at 4° C. for 1 h. Thereafter, the cells in each well were rinsed twice with 100 μL of pre-cooled PBS containing 2% BSA, and centrifuged at 500 g at 4° C. for 5 min, and then the supernatant was discarded. […] Finally, the cells in each well were resuspended in 200 μL of pre-cooled PBS containing 2% BSA, and the fluorescence signal values were read using a BD CantoII flow cytometer.

[2] = target: T2, human CD200R1 isoform a on CHOK1 cells (CHOK1/hCD200R1a) (human, UniProt Q8TD46 25-348); test: flow cytometry on CHOK1/hCD200R1a cells
T2 construct: also called CHOK1/CD200R1a
T2 sequence: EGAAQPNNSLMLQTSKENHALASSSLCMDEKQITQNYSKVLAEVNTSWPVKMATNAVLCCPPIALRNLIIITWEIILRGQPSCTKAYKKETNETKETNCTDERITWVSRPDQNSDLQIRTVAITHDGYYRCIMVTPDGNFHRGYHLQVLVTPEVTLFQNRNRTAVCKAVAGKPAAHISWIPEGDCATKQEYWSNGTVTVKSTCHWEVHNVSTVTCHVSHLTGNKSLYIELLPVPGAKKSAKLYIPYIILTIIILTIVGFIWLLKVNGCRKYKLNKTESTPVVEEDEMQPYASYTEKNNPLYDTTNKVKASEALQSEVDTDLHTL
Experimental: as §1, §2

[3] = target: T3, CD200 (human CD200 on CHOK1/hCD200 cells); test: cell-based or functional assay
T3 single chain: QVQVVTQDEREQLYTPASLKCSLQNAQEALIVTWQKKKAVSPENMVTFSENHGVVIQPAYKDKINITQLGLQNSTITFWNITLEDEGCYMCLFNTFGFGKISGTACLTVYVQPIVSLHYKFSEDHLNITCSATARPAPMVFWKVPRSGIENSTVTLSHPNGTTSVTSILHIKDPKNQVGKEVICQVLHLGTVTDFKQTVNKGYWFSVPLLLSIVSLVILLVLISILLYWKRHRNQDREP

[4] = target: T3, CD200 (human CD200 on CHOK1/hCD200 …); test: cell-based or functional assay
[5] = target: T3, CD200 (human CD200 on CHOK1/hCD200 …); test: cell-based or functional assay
[6] = target: T3, CD200 (human CD200 on CHOK1/hCD200 …); test: cell-based or functional assay
[7] = target: T3, CD200 (human CD200 on CHOK1/hCD200 …); test: cell-based or functional assay
[8] = target: T2, human CD200R1 isoform a on CHOK1 cells …; test: flow cytometry, Alexa Fluor 647-labelled antibody on CHOK1/hCD200R1a cells
Experimental: Briefly, CHOK1/hCD200R1a cells and CHOK1-cynoCD200R1a cells were digested, and collected, and then were resuspended in PBS containing 2% BSA, respectively. The cell density was adjusted to 1×10⁶ cells/mL. The cells were seeded in a 96-well V-bottom plate (Corning, #3894) at 100 μL/well, followed by the addition of test antibodies and reference antibodies in a series diluted concentration, each at 100 μL/well. The cells were incubated away from light at 4° C. for 1 h. Thereafter, the cells in each well were rinsed twice with 100 μL of pre-cooled PBS containing 2% BSA, and centrifuged at 500 g at 4° C. for 5 min, and then the supernatant was discarded. […] The cells in each well were rinsed twice with 100 μL of pre-cooled PBS containing 2% BSA, and centrifuged at 500 g at 4° C. for 5 min, and then the supernatant was discarded. Finally, the cells in each well were resuspended in 200 μL of pre-cooled PBS containing 2% BSA, and the fluorescence signal values were read using a BD CantoII flow cytometer.
The cell density was adjusted to 1×10⁶ cells/mL.

B1: PR200526 (antibody, human IgG1, lambda, V domains shown)
VH: QVQLVQSGAEVKKPGQSLRISCKGAGYSFSTYWIGWVRQMPGKGLEWMGIIYPDDSDTRYSPSFEGQVTISVDKSITTAYLHWSSLKASDTAIYYCARLVGGAPAYWGQGTLVTVSS
VL: QSALTQPASVSGSPGQSITISCSGSSSDIGRYDYVSWYQHYPDKAPKLIIYEVKHRPSGISHRFSASKSGNTASLTISELQPGDEADYYCASYTESKTYIFGGGTKVTVLG
notes: also called IgG1; hIgG1
binding result [1]: no binding (tested: log 2.5 nM (about 300 nM)) | binding result [2]: no binding (tested: log 2.5 nM (about 300 nM))

IC50 of the inhibition of CD200-induced PathHunter Jurkat CD200R1a luminescence (CHOK1/hCD200 cells as CD200 source) [3]: 2.4 nM | IC50 of the inhibition of CD200-induced PathHunter Jurkat CD200R1a luminescence (CHOK1/hCD200 cells as CD200 source) [4]: 3.4 nM | IC50 of the inhibition of CD200-induced PathHunter Jurkat CD200R1a luminescence (CHOK1/hCD200 cells as CD200 source); head without unit, x axis Log [Ab] (nM) [5]: 4.18 nM | IC50 of the inhibition of CD200-induced PathHunter Jurkat CD200R1a luminescence (CHOK1/hCD200 cells as CD200 source); head without unit, x axis Log [Ab] (nM) [6]: 11.9 nM | IC50 of the inhibition of CD200-induced PathHunter Jurkat CD200R1a luminescence (CHOK1/hCD200 cells as CD200 source) [7]: 4.01 nM
B2: PR002903 (antibody, human IgG2, kappa, V domains shown)
VH: QVQLQQSGSELKKPGASVKISCKASGYSFTDYIILWVRQNPGKGLEWIGHIDPYYGSSNYNLKFKGRVTITADQSTTTAYMELSSLRSEDTAVYYCGRSKRDYFDYWGQGTTLTVSS
VL: DIQMTQSPSSLSASIGDRVTITCKASQDINSYLSWFQQKPGKAPKLLIYRANRLVDGVPSRFSGSGSGTDYTLTISSLQPEDFAVYYCLQYDEFPYTFGGGTKLEIKR

B3: PR200691 (antibody, human IgG4 S228P, kappa, F234A L235A, V domains shown)
VH: QVQLVESGGGVVQPGRSLRLSCAASGFTFSRYGMHWVRQAPGKGLEWVAVIPYDGSNKYYADSVKGRFTISRDISKNTLYLQMNSLRAEDTAVYYCARRGYYDSSGYYYFYYGMDVWGQGTTVTVSS
VL: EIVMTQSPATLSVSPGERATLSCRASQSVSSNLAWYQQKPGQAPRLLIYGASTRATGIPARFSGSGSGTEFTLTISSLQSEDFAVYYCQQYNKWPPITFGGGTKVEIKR
binding result [8]: binds
